The results in this text go back to patent US20240301068A1 (BEIJING HANMI PHARMACEUTICAL, published 2024).

Usually EC50 stands for the concentration that produces a half-maximal response. As usually defined, the Kd is the equilibrium constant for the complex coming apart. Usually koff stands for the first-order rate constant of dissociation. A word on the kon: it is a measure of how fast the partners come together.

The target of experiment [1] is T1, recombinant human PD-L1 (Sino Biological Inc.) (human, UniProt Q9NZQ7 19-239). The experiment can be described thus: ELISA, plate coated with 1 ug/mL recombinant human PD-L1, anti-human IgG-HRP, OD450. On the procedure: (§1) A 96-well high-adsorption ELISA plate was coated with 1 μg/mL of the recombinant human PD-L1, cynomolgus PD-L1, rat PD-L1 and mouse PD-L1 (all purchased from Sino Biological Inc.), at 100 μL per well using carbonate buffer solution, pH=9.6 at 4° C. overnight. The plate was washed 5 times with PBST, and then blocked using PBST with 1% BSA, 300 μL/well, and incubated at 25° C. for 1 hour, and then washed 5 times with PBST. The chimeric anti-human PD-L1 antibody samples serially diluted in PBST with 1% BSA were added, 100 μL/well, incubated at 25° C. for 1 hour, and then washed 5 times with PBST. The horseradish peroxidase-labeled anti-human IgG antibody (Chemicon, catalog number AP309P) diluted 1:10000 in PBST with 1% BSA was then added, 100 μL per well, and incubated at 25° C. for 1 hour. The plate was washed 5 times with PBST. The colorimetric substrate TMB was added, 100 μL/well, and developed at room temperature for 10 minutes. 1M H₂SO₄ was added, 100 μL/well, to stop the development. The absorbance at 450 nm was read on a microplate reader.
(In general: In an ELISA, binding on a coated surface is turned into a signal by an enzyme label.)

Experiment [2] addresses recombinant cynomolgus PD-L1 (Sino Biological Inc.) (cynomolgus, UniProt G7PSE7 19-238). The experiment can be described thus: ELISA, plate coated with 1 ug/mL recombinant cynomolgus PD-L1, anti-human IgG-HRP, OD450. How it is done:
as §1

Experiment [3] deals with T2, recombinant human B7-H2 (Sino Biological Inc.) (human, UniProt O75144 19-258, limits assumed).
T2 sequence (looked up): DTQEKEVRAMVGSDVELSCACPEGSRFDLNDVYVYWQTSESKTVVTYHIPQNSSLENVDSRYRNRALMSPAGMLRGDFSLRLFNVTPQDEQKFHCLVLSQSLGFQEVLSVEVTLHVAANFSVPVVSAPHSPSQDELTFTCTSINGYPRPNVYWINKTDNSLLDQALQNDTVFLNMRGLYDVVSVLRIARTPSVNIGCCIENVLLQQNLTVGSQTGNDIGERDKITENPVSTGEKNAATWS
As to the kind of experiment: ELISA, plate coated with 1 ug/mL recombinant human B7-H2, anti-human IgG-HRP, OD450; antibody concentration not shown. On the procedure:
(§2) The plate was washed 5 times with PBST, and then blocked using PBST with 1% BSA, 300 μL/well, and incubated at 25° C. for 1 hour, and then washed 5 times with PBST. […] The horseradish peroxidase-labeled anti-human IgG antibody (Chemicon, catalog number AP309P) diluted 1:10000 in PBST with 1% BSA was then added, 100 μL per well, and incubated at 25° C. for 1 hour. The plate was washed 5 times with PBST. The colorimetric substrate TMB was added, 100 μL/well, and developed at room temperature for 10 minutes. 1M H₂SO₄ was added, 100 μL/well, to stop the development. The absorbance at 450 nm was read on a microplate reader.

In experiment [4] the target is recombinant human BTLA (Sino Biological Inc.) (human, UniProt Q7Z6A9 31-157, limits assumed). As to the kind of experiment: ELISA, plate coated with 1 ug/mL recombinant human BTLA, anti-human IgG-HRP, OD450; antibody concentration not shown. How it is done:
as §2

The target of experiment [5] is T1, recombinant human PD-L1 (Sino …). The experiment can be described thus: direct binding ELISA, plate coated with 1 ug/mL recombinant human PD-L1, anti-human IgG-HRP, OD450; the curve rises, the sheet labels the half-maximal value IC50. How it is done:
as §1, with “human” for “human PD-L1, cynomolgus PD-L1, rat”, “(Sino” for “and mouse PD-L1 (all purchased from Sino”, “Inc.)” for “Inc.),”, “The chimeric anti-human PD-L1 antibody samples serially diluted in PBST with 1% BSA were added, 100 μL/well, incubated at 25° C. for 1 hour, and then washed 5 times with PBST.” left out

For experiment [6] the target is unchanged. As to the kind of experiment: SPR, Biacore X100. How it is done:
This instrument utilizes optical surface plasmon resonance technology to detect the association and dissociation between the molecules coated on the biochip and the molecules to be tested. Association constants and dissociation constants were analyzed and calculated by Biacore X100 evaluation software. […]
Background: Surface plasmon resonance follows binding to a sensor surface in real time, without labels.

Experiment [7] shares this target. The experiment can be described thus: ELISA, human PD-L1 coated. On the procedure:
as §1, with “human” for “human PD-L1, cynomolgus PD-L1, rat”, “(Sino” for “and mouse PD-L1 (all purchased from Sino”, “Inc.)” for “Inc.),”, “The chimeric anti-human PD-L1 antibody samples serially diluted in PBST with 1% BSA were added, 100 μL/well, incubated at 25° C. for 1 hour, and then washed 5 times with PBST.” left out

Experiment [8] has as its target recombinant human CTLA4 (Sino Biological Inc.) (human, UniProt P16410 36-162). As to the kind of experiment: ELISA, plate coated with 1 ug/mL recombinant human CTLA4, anti-human IgG-HRP, OD450; antibody concentration not shown. How it is done: as §2
For experiment [9], the target named is T3, recombinant human PD-L2 (Sino Biological Inc.) (human, UniProt Q9BQ51 20-219).
T3 sequence (looked up): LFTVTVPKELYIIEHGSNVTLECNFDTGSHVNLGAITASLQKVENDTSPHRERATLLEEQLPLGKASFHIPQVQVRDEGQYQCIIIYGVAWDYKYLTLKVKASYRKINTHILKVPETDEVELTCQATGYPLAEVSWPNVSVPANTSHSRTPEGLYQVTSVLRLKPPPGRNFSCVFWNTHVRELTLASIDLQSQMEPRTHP
The experiment can be described thus: ELISA, plate coated with 1 ug/mL recombinant human PD-L2 (printed B7-DC), anti-human IgG-HRP, OD450; antibody concentration not shown. On the procedure:
as §2

T1 sequence (Q9NZQ7 19-239 limits assumed): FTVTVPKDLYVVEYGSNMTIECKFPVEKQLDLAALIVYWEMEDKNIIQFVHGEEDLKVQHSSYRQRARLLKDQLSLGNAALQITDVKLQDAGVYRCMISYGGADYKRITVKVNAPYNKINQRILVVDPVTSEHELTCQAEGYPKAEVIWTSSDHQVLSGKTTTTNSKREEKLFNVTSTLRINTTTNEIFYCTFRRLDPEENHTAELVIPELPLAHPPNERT
recombinant cynomolgus PD-L1 (Sino Biological Inc.), sequence (G7PSE7 entry or part of it limits assumed): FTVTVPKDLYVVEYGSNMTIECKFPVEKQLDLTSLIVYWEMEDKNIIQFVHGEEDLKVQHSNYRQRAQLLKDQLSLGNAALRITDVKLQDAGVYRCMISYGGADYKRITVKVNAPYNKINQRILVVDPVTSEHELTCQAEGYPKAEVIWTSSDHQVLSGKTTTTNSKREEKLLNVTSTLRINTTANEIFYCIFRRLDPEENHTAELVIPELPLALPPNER
recombinant human CTLA4 (Sino Biological Inc.), sequence (P16410 36-162 limits assumed): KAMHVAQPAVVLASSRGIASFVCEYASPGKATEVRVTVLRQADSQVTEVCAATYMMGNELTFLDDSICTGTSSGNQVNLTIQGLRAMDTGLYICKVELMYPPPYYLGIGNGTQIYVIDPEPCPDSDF

B1: chimeric anti-human PD-L1 monoclonal antibody (antibody, human IgG1, kappa, V domains shown)
VH: EVQLQQSGAELVKPGASVKLSCTASGFNIEDTYIHWVMQRPEQGLEWIGRIDPANGNTKYDPKFQGKATITADTSSNTAYLQLSSLTSEDTAVYYCGRGLGAWFAYWGQGTLVTVSA
VL: DIVMTQSHKVMSTSVGDRVTITCKASQDVHTAVAWIHQKPGQSPKLLIYSASNRYTGVPDRFTGSGSGTDFTFTISSVQAEDLAVYYCQQHYITPLTFGAGTTLELKR
notes: expressed in ExpiCHO cells; also called Chimeric mAb; Chimeric antibody
Turning to B1, the concentration for a half-maximal effect (EC50) in [1] is 0.056 nM; in experiment [2], 0.074 nM; in experiment [5] it was 0.021 nM; in experiment [7], 0.066 nM. The binding result in experiment [3], in [4], in [8] and in experiment [9] was “no binding” in each case. Also, in [6], the Kd is 0.63 nM. Also, the koff in experiment [6] stood at 0.000596 s⁻¹. Besides, the kon in [6] was found to be 946000 M⁻¹ s⁻¹.
